Patent US20180094062A1 (Hoffmann-La Roche, published 2018)
One block for each binder: values may come before it.

What was measured:
SBP-tagged HER3-ECD = biological target: T1, SBP-tagged HER3-ECD (human, UniProt P21860 20-643); test: plate assay: SBP-tagged HER3-ECD on streptavidin plate, antibody titrated, 10 nM Europium-labeled Heregulin-beta detected by time-resolved fluorescence; half-maximal rise of the Heregulin signal
T1 construct: not shown: SBP tag
Protocol: On the next day the wells were washed three times with washing buffer (PBS+0.05% Tween-20) and blocked with PBS containing 1% BSA for one hour. After another three washes with washing buffer, 40 μl antibody solution (in Delfia Binding Buffer) was added to each well as a 2× stock of the desired final concentrations (10⁻³ to 10³ nM, alternatively 10⁻⁴ to 10² nM). Immediately […] of 20 nM Europium-labeled Heregulin-beta (PeproTech, Cat. #100-03) was added to achieve a final concentration of 10 nM. The plates were incubated on a shaker at room temperature for two hours. Following three washes with Delfia Wash Buffer, Delfia Enhancement Solution was added and incubated on a shaker for 15 minutes (light protected). Finally, the plates were measured in a Tecan Infinite F200 reader using a time-resolved fluorescence measurement protocol.

TtSlyDcys-Her3 = biological target: T2, TtSlyDcys-Her3; test: SPR Biacore T200, antibody captured, 25 C
T2 chain: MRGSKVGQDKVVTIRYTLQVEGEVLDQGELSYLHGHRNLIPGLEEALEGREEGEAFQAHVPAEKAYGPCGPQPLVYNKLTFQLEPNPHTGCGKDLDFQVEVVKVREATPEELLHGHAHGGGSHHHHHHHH
Protocol: A Biacore T200 instrument (GE Healthcare) was mounted with a CM5 series sensor. The sensor was normalized in HBS-ET buffer (10 mM HEPES pH 7.4, 150 mM NaCl, 3 mM EDTA, 0.05% w/v Tween 20) according to the manufacturer's instructions. The sample buffer was the system buffer supplemented with 1 mg/ml CMD (Carboxymethyldextran, Sigma #86524). The system operated at 25° C. 6500 RU RAM-Fcγ (relative units of Fcγ-fragment RamlgG, GE Healthcare) were immobilized according to the manufacturer's instructions using amine coupling EDC/NHS chemistry on all four flow cells. The sensor was deactivated using 1M ethanolamine. […] Concentration dependent kinetics were measured. […] All analytes were injected for 5 min association time and 10 min dissociation time at 100 μl/min flow rate. The sensor capture system was regenerated by a 3 min injection at 10 μl/min of 10 mM glycine pH 1.7. Where possible kinetic data was evaluated using the Biacore T200 evaluation software.

[1] = biological target: T3, human HER3, full length, on cells (T47D, MCF7, transfected HEK293) (human, UniProt P21860 20-1342); test: FACS on T47D cells, 0 minutes incubation
T3 construct: endogenous on T47D and MCF7 tumor cells, transient full length in HEK293 (formalin fixed for IHC); also called expressed HER3 ECD

[2] = biological target: T4, HER1 (EGFR) ECD peptide hairpin, overlapping immobilized 15-mer peptides (human, UniProt P00533 265-283, limits assumed); test: CelluSpots array of overlapping 15-mer peptides
T4 construct: domain: peptide hairpin (β-hairpin); CelluSpots 15-mer library; cysteines replaced by serines; also called hairpin motive in EGFR
T4 peptide (looked up): PPLMLYNPTTYQMDVNPEG

[3] = biological target: T5, HER2 ECD peptide hairpin, overlapping immobilized 15-mer peptides (human, UniProt P04626 269-287, limits assumed); test: CelluSpots array of overlapping 15-mer peptides
T5 construct: domain: peptide hairpin (β-hairpin); CelluSpots 15-mer library; cysteines replaced by serines; also called hairpin motive in the HER2 ECD
T5 peptide (looked up): PALVTYNTDTFESMPNPEG

[4] = biological target: T6, HER1, full length, on transfected HEK293 cells (human, UniProt P00533 25-1210); test: IHC on HEK293 cells transiently transfected with full length HER1
T6 construct: HEK293 transiently transfected with a plasmid coding for full length HER1; also called EGFR
Protocol: All selected clones were tested for reactivity and specificity in IHC. […] After an additional fixation in formalin overnight the Agarose blocks were embedded in paraffin. Untransfected HEK293 cells were used as negative controls and treated accordingly to the transfected cells. After paraffin embedding 3 μm thin sections were prepared using a microtome. The sections were mounted on glass microscopy slides and dried for 2 h. All further steps of the immunohistochemical staining procedure were carried out using a Ventana Benchmark XT. The slides were dewaxed and antigen retrieval was performed by applying heat for 1 hour. For antigen retrieval the Ventana buffer CC1 was used. The antibodies were used at a concentration of 1 μg/ml. For the detection of bound antibody the Ventana UltraView detection kit was used.

[5] = biological target: T7, HER3 ECD-HRG complex (Heregulin-activated Her-3 ECD) (human, UniProt P21860 20-643); test: SPR Biacore 3000, antibody captured, Biacore two-state model, kd1, 25 C; kd1, first step of the two-state fit; not the kd2 used for KDapp
T7 construct: receptor-ligand complex made by preincubating HER3 ECD with a five-fold molar excess of Heregulin; also called Heregulin/Her-3 ECD; Heregulin-complexed Her-3 ECD
Protocol: A CM5 series sensor was mounted into the system and was normalized in HBS-ET buffer (10 mM HEPES pH 7.4, 150 mM NaCl, 3 mM EDTA, 0.005% w/v Tween 20) according to the manufacturer's instructions. The sample buffer was the system buffer supplemented with 1 mg/ml CMD (Carboxymethyldextran). The system operated at 25° C. 10000 RU RAM-Fey (relative units of Fey-fragment Rabbit Anti-Mouse IgG/Jackson Laboratories) were immobilized according to the manufacturer's instructions using EDC/NHS chemistry on all flow cells. The sensor was deactivated using 1M ethanolamine.

EC50 (read off the curve) (SBP-tagged HER3-ECD): ~2 nM
B1: anti-HER3 antibody M-46-01 (antibody, V domains shown)
VH: QIQLQQSGPQLVRPGASVKISCKASGYSFTSYWMHWVKQRPGRGLEWIGMIDPSDGVTRLNQKFKDKATLTVDNSSSTAYMQLSSPTSEDSAVHYCARVDVLYWYFDVWGAGTTVTVSS
VL: DIVLTQSPASLAVSLGQRATISCRASKSISISGYSYMHWYQQKAGQPPKLLIYLTSNLESGVPARFSGSGSGTDFTLNIHPVEEEDAATYYCHHSRELPFTFGSGTKLEIK
notes: mouse hybridoma clone

Kd (TtSlyDcys-Her3): 2.9 nM
MR (Molar Ratio) (TtSlyDcys-Her3): 1.7
koff (TtSlyDcys-Her3): 0.00016 s⁻¹
kon (TtSlyDcys-Her3): 54000 M⁻¹ s⁻¹
B2: anti-HER3 antibody M-43-01 (antibody, V domains shown)
VH: EVQLQQSGTVLARPGASVKMSCKASDYTFSNYWVHWVKQRPGQGLEWIGAIYPGNGDSTYYQKFKGKATLTAVTSTSTAYMDLSSLTNGDSAVYFCTRSGVGYNYYFDYWGQGTTLTVSS
VL: DIQMTQSPASLSASVGETVTITCRASENIYSNLAWYQQKQGKSPQLLVYIATNLADGVPSRFSGSGSGTQFSLKINSLQPEDLGSYYCQHFYGTPFTFGTGTKLEIE
notes: mouse hybridoma clone

fold binding level with HRG against without HRG [1]: ≥ 2 fold
binding result [2]: no binding (tested: 1 µg/mL)
binding result [3]: no binding (tested: 1 µg/mL)
binding result [4]: no binding
koff [5]: 0.0502 s⁻¹
EC50 (read off the curve) (SBP-tagged HER3-ECD): ~7 nM
B3: anti-HER3 antibody M-08-11 (antibody, V domains shown)
VH: QAYLQQSGAELMRPGASVRMSCQASGYTFTSYTIHWLKQTPRQGLEWIGAIYPRNGDFSYNQKFKDKASLTVDTSSSTAYMHLSSLTSEDSAVYFCARTINYGDWFAYWGQGTLVTVSA
VL: DIQMIQSPASLFVSEGETVIITCRASENIYSNLAWYHQKKGKSPQVLVYAAIKLADGVPLRFSGSGSGTQFSLKINSLQSEDFGSYYCQHFWGPPYTFGSGTNLEIK
notes: mouse monoclonal antibody from hybridoma, tested as hybridoma supernatant or as antibody; also called M-011
